According to patent publication US20260374820 (published 2026):
Read-outs that look alike come from different tables or passages of the source. Bridges are numbered along the chain shown (N, C = ends). Where no end group is shown, it is not given here.

B1: MuSK7 PEG11 dimer (peptide)
chain 1: YPSYHTNVVASLKRC
chain 2: YPSYHTNVVASLKRC
modifications: not fully specified (N-terminus, C-terminus, bridges); cysteine pairing not given here; also: homodimer via Bis-Mal-dPEG11 linker, attachment not given here
B2: MuSK1Ac PEG11 dimer (protein)
chain 1: YLPEFSWPESFVLFLRQRQRQLGRGAE
chain 2: YLPEFSWPESFVLFLRQRQRQLGRGAE
modifications: also: homodimer via PEG11 linker, attachment not given here, name suffix Ac, meaning not given here
B3: MuSK1Ac Term PEG11 dimer (protein)
chain 1: YLPEFSWPESFVLFLRQRQRQLGRGAE
chain 2: YLPEFSWPESFVLFLRQRQRQLGRGAE
modifications: also: homodimer via terminal PEG11 linker, terminus not given here, name suffix Ac, meaning not given here
B4: MuSK1Ac PEG3 dimer (protein)
chain 1: YLPEFSWPESFVLFLRQRQRQLGRGAE
chain 2: YLPEFSWPESFVLFLRQRQRQLGRGAE
modifications: also: homodimer via PEG3 linker, attachment not given here, name suffix Ac, meaning not given here
B5: MuSK9 PEG11 dimer (peptide)
chain 1: YWYLQPGYVNIVTSYHC
chain 2: YWYLQPGYVNIVTSYHC
modifications: not fully specified (N-terminus, C-terminus, bridges); cysteine pairing not given here; also: homodimer via Bis-Mal-dPEG11 linker, attachment not given here
B6: MuSK7-pal (peptide)
chain 1: YPSYHTNVVASLKRC
chain 2: YPSYHTNVVASLKRC
modifications: macrocyclic homodimer with palmitoyl group
B7: MuSK1 (peptide)
chain: YLPEFSWPESFVLFLRQRQRQLGRGAE
modifications: not fully specified (bridges); also: thioether macrocycle stated, places not given here
B8: MuSK4 PEG3 dimer (peptide)
chain 1: YFPTNVVSLLKSC
chain 2: YFPTNVVSLLKSC
modifications: not fully specified (N-terminus, C-terminus, bridges); cysteine pairing not given here; also: homodimer via PEG3 linker, attachment not given here
B9: MuSK1Ac Term PEG3 dimer (protein)
chain 1: YLPEFSWPESFVLFLRQRQRQLGRGAE
chain 2: YLPEFSWPESFVLFLRQRQRQLGRGAE
modifications: also: homodimer via terminal PEG3 linker, terminus not given here, name suffix Ac, meaning not given here
B10: MuSK4 PEG11 dimer (peptide)
chain 1: YFPTNVVSLLKSC
chain 2: YFPTNVVSLLKSC
modifications: not fully specified (N-terminus, C-terminus, bridges); cysteine pairing not given here; also: homodimer via Bis-Mal-dPEG11 linker, attachment not given here
B11: MuSK9 PEG3 dimer (peptide)
chain 1: YWYLQPGYVNIVTSYHC
chain 2: YWYLQPGYVNIVTSYHC
modifications: not fully specified (N-terminus, C-terminus, bridges); cysteine pairing not given here; also: homodimer via PEG3 linker, attachment not given here
B12: MuSK7 PEG3 dimer (peptide)
chain 1: YPSYHTNVVASLKRC
chain 2: YPSYHTNVVASLKRC
modifications: not fully specified (N-terminus, C-terminus, bridges); cysteine pairing not given here; also: homodimer via PEG3 linker, attachment not given here

How the values were obtained:
Experiment in all cases: SPR
human MuSK [1] = target: T1, human MuSK (human, UniProt O15146)
T1 chain: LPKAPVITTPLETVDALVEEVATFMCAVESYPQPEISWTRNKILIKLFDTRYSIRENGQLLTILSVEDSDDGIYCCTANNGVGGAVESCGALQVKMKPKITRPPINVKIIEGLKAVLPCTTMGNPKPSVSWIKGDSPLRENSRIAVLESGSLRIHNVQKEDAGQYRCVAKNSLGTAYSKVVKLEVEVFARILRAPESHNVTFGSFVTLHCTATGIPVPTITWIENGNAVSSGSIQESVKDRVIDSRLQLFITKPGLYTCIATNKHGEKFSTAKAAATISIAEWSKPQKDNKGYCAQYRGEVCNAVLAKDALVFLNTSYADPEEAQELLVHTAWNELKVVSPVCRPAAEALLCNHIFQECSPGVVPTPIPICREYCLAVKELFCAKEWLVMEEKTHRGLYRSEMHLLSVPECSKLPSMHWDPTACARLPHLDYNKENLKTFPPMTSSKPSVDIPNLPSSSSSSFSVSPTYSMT

human MuSK [2] = target: T1, human MuSK
mouse MuSK = target: T2, mouse MuSK (mouse, UniProt Q61006)
T2 chain: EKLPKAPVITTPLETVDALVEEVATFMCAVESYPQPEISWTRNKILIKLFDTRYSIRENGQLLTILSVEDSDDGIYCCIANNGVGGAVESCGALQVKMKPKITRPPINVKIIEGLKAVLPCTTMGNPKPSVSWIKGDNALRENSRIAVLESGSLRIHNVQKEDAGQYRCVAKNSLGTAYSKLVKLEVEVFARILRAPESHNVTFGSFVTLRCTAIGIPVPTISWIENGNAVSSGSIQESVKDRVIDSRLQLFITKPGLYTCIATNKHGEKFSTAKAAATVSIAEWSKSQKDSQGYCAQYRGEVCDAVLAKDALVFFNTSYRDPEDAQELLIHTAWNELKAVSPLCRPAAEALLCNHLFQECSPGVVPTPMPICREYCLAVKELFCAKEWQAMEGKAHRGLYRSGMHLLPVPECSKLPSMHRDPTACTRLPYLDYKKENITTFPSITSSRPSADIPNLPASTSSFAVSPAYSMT

rat MuSK = target: T3, rat MuSK (rat, UniProt Q62838)
T3 chain: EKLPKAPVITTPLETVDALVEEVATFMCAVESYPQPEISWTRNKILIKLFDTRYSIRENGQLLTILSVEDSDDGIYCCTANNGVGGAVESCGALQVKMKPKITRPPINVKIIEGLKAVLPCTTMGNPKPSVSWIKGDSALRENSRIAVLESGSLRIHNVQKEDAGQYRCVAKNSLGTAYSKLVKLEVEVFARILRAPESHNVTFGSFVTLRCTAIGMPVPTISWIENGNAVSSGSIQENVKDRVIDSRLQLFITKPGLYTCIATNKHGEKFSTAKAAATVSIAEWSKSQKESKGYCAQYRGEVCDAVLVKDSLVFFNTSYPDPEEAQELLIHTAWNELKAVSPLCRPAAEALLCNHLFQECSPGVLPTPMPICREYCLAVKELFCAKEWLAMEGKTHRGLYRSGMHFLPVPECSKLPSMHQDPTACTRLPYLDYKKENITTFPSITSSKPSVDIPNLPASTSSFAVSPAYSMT

human MuSK [3] = target: T1, human MuSK

Row | Binder | Kd (human MuSK [1]) [nM] | further results
1 | B1 | 1.3 | –
2 | B2 | 1.5 | –
3 | B3 | 3.6 | –
4 | B4 | 4.4 | –
5 | B5 | 3.9 | –
6 | B6 | – | Kd (human MuSK [2]): 0.9 nM; Kd (mouse MuSK): 8.8 nM; Kd (rat MuSK): 2 nM
7 | {CH2CO}-YPSYHTNVVASLKRC (thioether N-15 (inferred); not fully specified (C-terminus)) [MuSK7] | – | Kd (human MuSK [3]): 160 nM
8 | YLPEFSWPESFVLFLRQRQRQLGRGAE (also: name suffix Ac, meaning not given here) [MuSK1Ac] | – | Kd (human MuSK [3]): 1.6 nM
9 | {CH2CO}-YFPTNVVSLLKSC (thioether N-13 (inferred); not fully specified (C-terminus)) [MuSK4] | – | Kd (human MuSK [3]): 250 nM
10 | B7 | – | Kd (human MuSK [3]): 2.2 nM
11 | B8 | 6.8 | –
12 | B9 | 6 | –
13 | B10 | 6.9 | –
14 | B11 | 2.1 | –
15 | B12 | 0.62 | –
